From the supplement of paper PMC5998384

Key:
HeLa Kyoto [1] = experiment: melting temperature (median over replicates), in situ; higher = more thermally stable
HeLa Kyoto [2] = experiment: solubility in G1/S (NP-40 vs SDS abundance) (log2 ratio); higher = more soluble; conditions: cell cycle stage: G1/S
HeLa Kyoto [3] = experiment: thermal stability score vs G1/S (z-score of summed log2 fold changes over temperatures); higher = more thermally stable than in G1/S
HeLa Kyoto [4] = experiment: solubility change mitosis vs G1/S (difference of NP-40 vs SDS log2 ratios) (log2 ratio difference); higher = more soluble in mitosis
[5] = cell cycle stage: early G1 (4.5 h after nocodazole release)
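Throughout, for melting temperature (median over replicates), in situ: HeLa Kyoto cells synchronized by double thymidine or nocodazole block, proteins quantified by TMT10plex mass spectrometry, three independent biological replicates.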
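Throughout, for solubility change mitosis vs G1/S (difference of NP-40 vs SDS log2 ratios): synchronized HeLa Kyoto cells (double thymidine block for G1/S, nocodazole release for mitosis), protein amounts in NP-40 versus SDS lysates quantified by mass spectrometry, three biological replicates.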
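Throughout, for solubility in G1/S (NP-40 vs SDS abundance): HeLa Kyoto cells arrested at G1/S by double thymidine block, proteins quantified by TMT10plex mass spectrometry in mild NP-40 versus SDS extracts, three biological replicates.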
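Throughout, for thermal stability score vs G1/S (z-score of summed log2 fold changes over temperatures): synchronized HeLa Kyoto cells, proteins quantified by TMT10plex mass spectrometry, three biological replicates, mitosis taken 0.5 h after nocodazole release, G1/S directly after double thymidine block.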

For “MDLGPLNICEEMTILHGGFLLAEQLFHPKALAELTKSDWERVGRPIVEALREISSAAAHSQPFAWKKKALIIIWAKVLQPHPVTPSDTETRWQEDLFFSVGNMIPTINHTILFELLKSLEASGLFIQLLMALPTTICHAELERFLEHVTVDTSAEDVAFFLDVWWEVMKHKGHPQDPLLSQFSAMAHKYLPALDEFPHPPKRLRSDPDACPTMPLLAMLLRGLTQIQSRILGPGRKCCALANLADMLTVFALTEDDPQEVSATVYLDKLATVISVWNSDTQNPYHQQALAEKVKEAERDVSLTSLAKLPSETIFVGCEFLHHLLREWGEELQAVLRSSQGTSYDSYRLCDSLTSFSQNATLYLNRTSLSKEDRQVVSELAECVRDFLRKTSTVLKNRALEDITASIAMAVIQQKMDRHMEVCYIFASEKKWAFSDEWVACLGSNRALFRQPDLVLRLLETVIDVSTADRAIPESQIRQVIHLILECYADLSLPGKNKVLAGILRSWGRKGLSEKLLAYVEGFQEDLNTTFNQLTQSASEQGLAKAVASVARLVIVHPEVTVKKMCSLAVVNLGTHKFLAQILTAFPALRFVEEQGPNSSATFMVSCLKETVWMKFSTPKEEKQFLELLNCLMSPVKPQGIPVAALLEPDEVLKEFVLPFLRLDVEEVDLSLRIFIQTLEANACREEYWLQTCSPFPLLFSLCQLLDRFSKYWQLPKEKRCLSLDRKDLAIHILELLCEIVSANAETFSPDVWIKSLSWLHRKLEQLDWTVGLRLKSFFEGHFKCEVPATLFEICKLSEDEWTSQAHPGYGAGTGLLAWMECCCVSSGISERMLSLLVVDVGNPEEVRLFSKGFLVALVQVMPWCSPQEWQRLHQLTRRLLEKQLLHVPYSLEYIQFVPLLNLKPFAQELQLSVLFLRTFQFLCSHSCRDWLPLEGWNHVVKLLCGSLTRLLDSVRAIQAAGPWVQGPEQDLTQEALFVYTQVFCHALHIMAMLHPEVCEPLYVLALETLTCYETLSKTNPSVSSLLQRAHEQRFLKSIAEGIGPEERRQTLLQKMSSF [GEMIN4]”, the melting temperature (HeLa Kyoto [1]; cell cycle stage: G1/S) was 47 °C, the melting temperature (HeLa Kyoto [1]; cell cycle stage: mitosis) was 49.3 °C and the “solubility in G1/S (log2)” value (HeLa Kyoto [2]) was -0.428. The thermal stability score (HeLa Kyoto [3]; [5]) was 0.771, the thermal stability score (HeLa Kyoto [3]; cell cycle stage: mitosis) was 3.29 and the “solubility change mitosis (log2)” value (HeLa Kyoto [4]) was -0.14.
In the case of “MDLSGVKKKSLLGVKENNKKSSTRAPSPTKRKDRSDEKSKDRSKDKGATKESSEKDRGRDKTRKRRSASSGSSSTRSRSSSTSSSGSSTSTGSSSGSSSSSASSRSGSSSTSRSSSSSSSSGSPSPSRRRHDNRRRSRSKSKPPKRDEKERKRRSPSPKPTKVHIGRLTRNVTKDHIMEIFSTYGKIKMIDMPVERMHPHLSKGYAYVEFENPDEAEKALKHMDGGQIDGQEITATAVLAPWPRPPPRRFSPPRRMLPPPPMWRRSPPRMRRRSRSPRRRSPVRRRSRSPGRRRHRSRSSSNSSR [RNPS1]”, the melting temperature (HeLa Kyoto [1]; cell cycle stage: G1/S) is reported as 48.9 °C, the melting temperature (HeLa Kyoto [1]; cell cycle stage: mitosis) is reported as 50 °C and the “solubility in G1/S (log2)” value (HeLa Kyoto [2]) is reported as -0.501. The thermal stability score (HeLa Kyoto [3]; [5]) was 0.608, the thermal stability score (HeLa Kyoto [3]; cell cycle stage: mitosis) was 1.88 and the “solubility change mitosis (log2)” value (HeLa Kyoto [4]) was 0.52.
For “MDNLSDTLKKLKITAVDKTEDSLEGCLDCLLQALAQNNTETSEKIQASGILQLFASLLTPQSSCKAKVANIIAEVAKNEFMRIPCVDAGLISPLVQLLNSKDQEVLLQTGRALGNICYDSHEGRSAVDQAGGAQIVIDHLRSLCSITDPANEKLLTVFCGMLMNYSNENDSLQAQLINMGVIPTLVKLLGIHCQNAALTEMCLVAFGNLAELESSKEQFASTNIAEELVKLFKKQIEHDKREMIFEVLAPLAENDAIKLQLVEAGLVECLLEIVQQKVDSDKEDDITELKTGSDLMVLLLLGDESMQKLFEGGKGSVFQRVLSWIPSNNHQLQLAGALAIANFARNDANCIHMVDNGIVEKLMDLLDRHVEDGNVTVQHAALSALRNLAIPVINKAKMLSAGVTEAVLKFLKSEMPPVQFKLLGTLRMLIDAQAEAAEQLGKNVKLVERLVEWCEAKDHAGVMGESNRLLSALIRHSKSKDVIKTIVQSGGIKHLVTMATSEHVIMQNEALVALALIAALELGTAEKDLESAKLVQILHRLLADERSAPEIKYNSMVLICALMGSECLHKEVQDLAFLDVVSKLRSHENKSVAQQASLTEQRLTVES [RAP1GDS1]”, the melting temperature (HeLa Kyoto [1]; cell cycle stage: G1/S) was 50.2 °C, the melting temperature (HeLa Kyoto [1]; cell cycle stage: mitosis) was 49.8 °C and the “solubility in G1/S (log2)” value (HeLa Kyoto [2]) was 0.111. The thermal stability score (HeLa Kyoto [3]; [5]) was 1.29, the thermal stability score (HeLa Kyoto [3]; cell cycle stage: mitosis) was 1.87 and the “solubility change mitosis (log2)” value (HeLa Kyoto [4]) was -0.0374.
With “MDNYADLSDTELTTLLRRYNIPHGPVVGSTRRLYEKKIFEYETQRRRLSPPSSSAASSYSFSDLNSTRGDADMYDLPKKEDALLYQSKGYNDDYYEESYFTTRTYGEPESAGPSRAVRQSVTSFPDADAFHHQVHDDDLLSSSEEECKDRERPMYGRDSAYQSITHYRPVSASRSSLDLSYYPTSSSTSFMSSSSSSSSWLTRRAIRPENRAPGAGLGQDRQVPLWGQLLLFLVFVIVLFFIYHFMQAEEGNPF [EMD]” the melting temperature (HeLa Kyoto [1]; cell cycle stage: G1/S) was 52.4 °C, the melting temperature (HeLa Kyoto [1]; cell cycle stage: mitosis) was 51.7 °C and the “solubility in G1/S (log2)” value (HeLa Kyoto [2]) was -0.273. The thermal stability score (HeLa Kyoto [3]; [5]) was -0.609, the thermal stability score (HeLa Kyoto [3]; cell cycle stage: mitosis) was -0.468 and the “solubility change mitosis (log2)” value (HeLa Kyoto [4]) was 0.383.
